Assay results from PMC7727368.

Target: Fasciola hepatica profilin (FhProfilin), recombinant (Fasciola hepatica)
Test: SEC; Superdex S75 16/60 in TBS (10 mM Tris-HCl, 300 mM NaCl, pH 8.0), 1 ml/min; elution volume compared with proteins of known molecular weight

stoichiometry N: 2
Substance: Fasciola hepatica profilin (FhProfilin), recombinant (natural protein)
